Measured values: patent publication US6558913

Target: factor Xa-activated factor V(Q506) (UniProt P12259)
UniProt P12259, sequence (P12259 29-737 R534Q, chain 1 of 2): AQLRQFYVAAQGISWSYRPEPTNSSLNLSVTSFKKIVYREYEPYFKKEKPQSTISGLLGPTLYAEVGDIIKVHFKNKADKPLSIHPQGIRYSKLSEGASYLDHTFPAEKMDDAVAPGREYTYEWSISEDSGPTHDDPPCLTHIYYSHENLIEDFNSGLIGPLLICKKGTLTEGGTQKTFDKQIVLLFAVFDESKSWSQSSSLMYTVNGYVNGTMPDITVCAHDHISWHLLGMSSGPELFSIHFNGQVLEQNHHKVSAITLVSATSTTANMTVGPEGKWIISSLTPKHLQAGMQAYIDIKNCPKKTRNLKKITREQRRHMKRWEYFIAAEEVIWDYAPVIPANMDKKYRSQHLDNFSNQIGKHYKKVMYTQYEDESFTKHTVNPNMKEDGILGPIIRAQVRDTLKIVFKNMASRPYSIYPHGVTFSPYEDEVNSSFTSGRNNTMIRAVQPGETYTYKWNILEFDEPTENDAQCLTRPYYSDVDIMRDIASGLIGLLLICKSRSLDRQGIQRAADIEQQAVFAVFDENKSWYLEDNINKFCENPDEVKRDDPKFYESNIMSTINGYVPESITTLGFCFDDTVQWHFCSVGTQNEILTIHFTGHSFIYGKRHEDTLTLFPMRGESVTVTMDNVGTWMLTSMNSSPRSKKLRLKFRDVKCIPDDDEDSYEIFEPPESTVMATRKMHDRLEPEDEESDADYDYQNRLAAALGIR
UniProt P12259, sequence (P12259 1047-2224, chain 2 of 2): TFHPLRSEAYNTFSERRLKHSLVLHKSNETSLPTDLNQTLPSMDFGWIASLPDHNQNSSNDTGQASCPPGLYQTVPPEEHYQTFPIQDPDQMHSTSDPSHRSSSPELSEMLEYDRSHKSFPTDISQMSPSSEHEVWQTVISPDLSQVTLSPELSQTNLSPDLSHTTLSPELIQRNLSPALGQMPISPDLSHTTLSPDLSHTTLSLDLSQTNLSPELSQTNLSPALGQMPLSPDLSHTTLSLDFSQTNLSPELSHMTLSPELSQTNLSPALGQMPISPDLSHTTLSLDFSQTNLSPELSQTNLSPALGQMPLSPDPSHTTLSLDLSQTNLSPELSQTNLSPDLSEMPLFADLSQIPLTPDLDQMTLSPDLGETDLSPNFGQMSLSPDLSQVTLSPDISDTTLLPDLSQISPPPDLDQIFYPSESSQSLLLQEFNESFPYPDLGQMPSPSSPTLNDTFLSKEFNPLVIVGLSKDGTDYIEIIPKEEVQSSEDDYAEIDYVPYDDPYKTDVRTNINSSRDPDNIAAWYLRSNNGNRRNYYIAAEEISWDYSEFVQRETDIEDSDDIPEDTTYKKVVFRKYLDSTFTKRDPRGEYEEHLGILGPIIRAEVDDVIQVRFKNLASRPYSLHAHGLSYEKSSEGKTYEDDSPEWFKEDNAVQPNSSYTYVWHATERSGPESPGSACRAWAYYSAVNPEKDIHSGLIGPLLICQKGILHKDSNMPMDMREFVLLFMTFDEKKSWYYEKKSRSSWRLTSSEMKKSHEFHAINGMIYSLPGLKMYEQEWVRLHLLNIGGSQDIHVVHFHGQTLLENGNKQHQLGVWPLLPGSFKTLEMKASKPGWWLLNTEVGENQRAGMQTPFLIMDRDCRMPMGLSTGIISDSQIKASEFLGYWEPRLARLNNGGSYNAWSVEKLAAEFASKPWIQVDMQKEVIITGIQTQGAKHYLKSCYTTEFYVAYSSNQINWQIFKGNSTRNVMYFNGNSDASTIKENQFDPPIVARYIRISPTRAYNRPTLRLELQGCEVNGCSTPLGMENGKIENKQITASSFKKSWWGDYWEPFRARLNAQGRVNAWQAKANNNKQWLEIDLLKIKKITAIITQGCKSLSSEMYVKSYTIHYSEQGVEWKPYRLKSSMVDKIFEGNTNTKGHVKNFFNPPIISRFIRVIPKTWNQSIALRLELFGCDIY

## activated protein C
  factor Va activity over time after addition of APC (inactivation by APC): the replacement of Arg-506 by Gln only prevents the inactivation of the Xa-activated form of factor V by APC (FIG. 8)
